# Laboratory results from patent publication US20120275996A1 (AbbVie / Abbott, published 2012).
# T1: human IL-1α (human, UniProt P01583 113-271)
# T1 construct: also called hIL-1α; recombinant purified human IL-1α
# T1 sequence: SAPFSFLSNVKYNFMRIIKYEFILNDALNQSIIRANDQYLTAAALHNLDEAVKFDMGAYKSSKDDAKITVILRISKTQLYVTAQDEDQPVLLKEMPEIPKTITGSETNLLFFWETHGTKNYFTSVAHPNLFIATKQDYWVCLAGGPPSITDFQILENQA
# T2: cynomolgus IL-1α (cynomolgus, UniProt P79340 113-271, limits assumed)
# T2 sequence (looked up): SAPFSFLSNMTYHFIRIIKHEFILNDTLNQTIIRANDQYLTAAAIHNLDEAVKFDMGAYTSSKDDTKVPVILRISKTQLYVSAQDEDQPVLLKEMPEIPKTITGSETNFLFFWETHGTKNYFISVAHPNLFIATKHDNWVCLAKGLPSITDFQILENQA
# B1: 3D12-372-10 (antibody, V domains shown)
# VH: EIQLVQSGAEVKKPGASVKVSCKASGYTFTNYGMNWVRQAPGQGLEWMGWINTYTGESTYADDFKGRFTFTLDTSTSTAYMELSSLRSEDTAVYFCARGIYYYGSSYAMDYWGQGTTVTVSS
# VL: DIQMTQSPSSLSASVGDRVTITCRASQDISDMLNWYQQKPGKTPKLLIYHTSRLYSGVPSRFSGSGSGTDYTFTISSLQPEDIATYFCQQGKTLPPAFGQGTKLEIKR
# notes: no constant regions are stated for this clone
# B2: 3D12-362-10 (antibody, V domains shown)
# VH: EVQLVQSGAEVKKPGVSVKVSCKASGYTFTTYGMHWVRQAPGQGLEWMGWINTYTGESTYADDFQGRVTFTLDTSTSTAYMELSSLRSEDTAVYFCARGIYYYGSSYAMNYWGQGTTVTVSS
# VL: DIQMTQSPSSLSASVGDRVTITCRASQDISNCLNWYQQKPGKTPKLLIYYTSRLHSGVPSRFSGSGSGTDYTFTISSLQPEDIATYFCQQGKTLPYAFGQGTKLEIKR
# notes: no constant regions are stated for these clones; The humanized parents used human IgG1 with L234A/L235A and human kappa
# B3: 3D12-362-10/372-10 (antibody, V domains shown)
# VH: EVQLVQSGAEVKKPGVSVKVSCKASGYTFTTYGMHWVRQAPGQGLEWMGWINTYTGESTYADDFQGRVTFTLDTSTSTAYMELSSLRSEDTAVYFCARGIYYYGSSYAMNYWGQGTTVTVSS
# VL: DIQMTQSPSSLSASVGDRVTITCRASQDISDMLNWYQQKPGKTPKLLIYHTSRLYSGVPSRFSGSGSGTDYTFTISSLQPEDIATYFCQQGKTLPPAFGQGTKLEIKR
# B4: 3D12-372-15 (antibody, V domains shown)
# VH: EIQLVQSGAEVKKPGASVKVSCKASGYTFTNYGMNWVRQAPGQDLEWMGWINTYTGESTYADDFKGRFTFTLDTSTSTAYMELSSLRSEDTAVYFCARGIYYYGSSYAMDYWGQGTTVTVSS
# VL: DIQMTQSPSSLSASVGDRVTITCRASQDISNMLNWYQQKPGKTPKLLIYYTSRLYPGVPSRFSGSGSGTDYTFTISSLQPEDIATYFCQQGKTLPYAFGQGTKLEIKR
# notes: as for B1
# B5: 3D12.6 (antibody, V domains shown)
# VH: EIQLVQSGSELKKPGASVKVSCKASGYTFTNYGMNWVRQAPGQDLERMAWINTYTGESTYADDFKGRFVFSLDTSVSTAYLQISSLKAEDTAVYFCARGIYYYGSSYAMDYWGQGTTVTVSS
# VL: DIQMTQSPSSLSASVGDRVTITCRASQDISNCLNWYQQKPGKTPKLLIYYTSRLHSGVPSRFSGSGSGTDYTFTISSLQPEDIATYFCQQGKTLPYAFGQGTKLEIK
# notes: Full-length humanized antibody; VH is fused to a human IgG1 constant region with L234A and L235A (EU numbering); also called VH H3D12VH.1A / VL H3D12VK.1C; VH3D12.6
# B6: 3D12.11 (antibody, V domains shown)
# VH: EIQLVQSGAEVKKPGASVKVSCKASGYTFTNYGMNWVRQAPGQDLERMAWINTYTGESTYADDFKGRFTFTLDTSTSTAYMELSSLRSEDTAVYFCARGIYYYGSSYAMDYWGQGTTVTVSS
# VL: DIQMTQSPSSLSASVGDRVTITCRASQDISNCLNWYQQKPGKTPKLLIYYTSRLHSGVPSRFSGSGSGTDYTFTISSLQPEDIATYFCQQGKTLPYAFGQGTKLEIK
# notes: Full-length humanized antibody; VH is fused to a human IgG1 constant region with L234A and L235A (EU numbering); also called VH H3D12VH.2A / VL H3D12VK.1C; VH3D12.11
# How the values were obtained:
# human IL-1α [1] = biological target: T1, human IL-1α; test: ELISA; antibody captured by anti-human Fc, biotinylated antigen titrated
# Method: Plates were washed five times in washing buffer (PBS containing 0.05% Tween 20), and blocked for 1 hour at 25° C. with 200 μl per well superblock blocking buffer (Thermo scientific, #37515). Blocking buffer was removed by tapping plates, and 2 μg/ml of each antibody in PBS containing 10% superblock, 0.5% tween-20 was added to the wells at 100 μl per well and incubated at 25° C. for 1 hour. The wells were washed five times in 1×PBST, and 1 μg/ml biotinylated antigen was titrated at 1:6 serial dilutions (for a range of μg to pg in PBS containing 10% superblock, 0.05% Tween 20). Each dilution of antigen was then added to the plates and incubated for 1 hour at 25° C. The wells were washed five times in 1XPBST and incubated for 1 hour at […]. with polyHRP streptavidin (KPL #474-3000, Gaithersburg, Md.). The wells were washed five times in 1XPBST, and 100 μl of ULTRA-TMB ELISA (Pierce, Rockford, Ill.) were added per well. Following color development the reaction was stopped with 1N HCL and absorbance at 450 nm is measured. The results are shown in Table 11 and the numerical value indicates binding of human anti-IL-1a antibodies to human IL-1α.
# human IL-1α [2] = biological target: T1, human IL-1α; test: cell-based or functional assay
# cynomolgus IL-1α [3] = biological target: T2, cynomolgus IL-1α; test: cell-based or functional assay
# human IL-1α [4] = biological target: T1, human IL-1α; test: SPR (Biacore 3000), antibody captured, antigen in solution, 25 °C
# Method: (§1) The BIACORE assay (Biacore, Inc, Piscataway, N.J.) determines the affinity of antibodies with kinetic measurements of on-, off-rate constants. Binding of antibodies to recombinant purified human IL-1α and cynomolgus IL-1α was determined by surface plasmon resonance-based measurements with a Biacore® 3000 instrument (Biacore® AB, Uppsala, Sweden) using running HBS-EP (10 mM HEPES [pH 7.4], 150 mM NaCl, 3 mM EDTA, and 0.005% surfactant P20) at 25° C. All chemicals were obtained from Biacore® AB (Uppsala, Sweden) or otherwise from a different source as described in the text. Approximately 5000 RU of goat anti-mouse IgG, (Fcγ), fragment specific polyclonal antibody (Pierce Biotechnology Inc, Rockford, Ill.) diluted in 10 mM sodium acetate (pH 4.5) was directly immobilized across a CM5 research grade biosensor chip using a standard amine coupling kit according to manufacturer's instructions and procedures at 25 μg/ml. Unreacted moieties on the biosensor surface were blocked with ethanolamine. Modified carboxymethyl dextran surface in flowcell 2 and 4 was used as a reaction surface. Unmodified carboxymethyl dextran without goat anti-mouse IgG in flow cell 1 and 3 was used as the reference surface. For kinetic analysis, rate equations derived from the 1:1 Langmuir binding model were fitted simultaneously to association and dissociation phases of all eight injections (using global fit analysis) with the use of Biaevaluation 4.0.1 software. Purified antibodies were diluted in HEPES-buffered saline for capture across goat anti-human IgG specific reaction surfaces. Antibodies to be captured as a ligand (25 μg/ml) were injected over reaction matrices at a flow rate of 5 μl/minute. The association and dissociation rate constants, kₒₙ (unit M⁻¹s⁻¹) and koff (unit s⁻¹) were determined under a continuous flow rate of 25 μl/min Rate constants were derived by making kinetic binding measurements at ten different antigen concentrations ranging from 10-200 nM. The equilibrium dissociation constant (unit M) of the reaction between antibodies and the target antigen was then calculated from the kinetic rate constants by the following formula: KD=koff/kₒₙ. Binding is recorded as a function of time and kinetic rate constants are calculated. In this assay, on-rates as fast as 10⁶M⁻¹s⁻¹ and off-rates as slow as 10⁻⁶ s⁻¹ can be measured.
# cynomolgus IL-1α [5] = biological target: T2, cynomolgus IL-1α; test: as above
# Method: as §1
Binder,EC50 (human IL-1α [1]) [nM],Potency on hIL-1α (pM); inhibition of IL-1α induced hIL-8 production by MRC-5 cells (human IL-1α [2]) [pM],Potency on cyno IL-1α (pM); inhibition of IL-1α induced hIL-8 production by MRC-5 cells (cynomolgus IL-1α [3]) [pM],Kd (human IL-1α [4]) [nM],koff (human IL-1α [4]) [s⁻¹],kon (human IL-1α [4]) [M⁻¹ s⁻¹],Kd (cynomolgus IL-1α [5]) [nM],koff (cynomolgus IL-1α [5]) [s⁻¹],kon (cynomolgus IL-1α [5]) [M⁻¹ s⁻¹]
B1,0.0721,49.9,49.2,,,,,,
B2,0.0196,4.8,6.2,0.0528,8.38e-05,1.59e+06,0.0135,2.19e-05,1.63e+06
B3,0.133,29.3,4.9,,,,,,
B4,0.0742,38.6,,,,,,,
B5,,,,1.78,0.00206,1.16e+06,,,
B6,,,,0.665,0.00108,1.64e+06,,,
